Experimental data from patent US11471462B2, “Compositions and methods for detecting and treating diabetes” (THE BROAD INSTITUTE, INC., priority 2016, dated 2022).

What follows are molecules tested on SLC16A11 (assay: SLC16A11 protein-protein interaction study (immunoprecipitation, quantitative mass spectrometry)). Conditions: putative SLC16A11^REF interaction partners; immunoprecipitation from HEK293T cells vs empty vector control; Blandt-Altman.
Set-up: species or system human
Source text: Alternatively, these variants may result in reduced transport because they disrupt protein-protein interactions responsible for correct SLC16A11 function. To explore this possibility, SLC16A11 was immunoprecipitated from HEK293T cells expressing either REF or T2D risk SLC16A11-V5 or empty vector control and quantitative mass spectrometry was used to define the SLC16A11 interactome.
Another mechanism through which the variants could affect activity is through disruption of protein-protein interactions. To explore this possibility, quantitative mass spectrometry-based protein-protein interaction studies were performed to define the SLC16A11 interactome and evaluate if the T2D risk coding variants alter any interactions.
Beads were then washed once with lysis buffer and three times with wash buffer. After the last wash, residual wash buffer was removed, 10 μL fresh wash buffer was added, and beads were stored at −80° C. until analysis by the Proteomics Platform at the Broad Institute, as detailed in the “Proteomics Methods for SLC16A11 Protein Interaction Studies” below.
The beads from immunopurification were washed once with IP lysis buffer, then three times with PBS, the three different lysates of each replicate were resuspended in 90 uL digestion buffer (2M Urea, 50 mM Tris HCl), 2 ug of sequencing grade trypsin added, 1 hour shaking at 700 rpm. The supernatant was removed and placed in a fresh tube. The beads were then washed twice with 50 uL digestion buffer and combined with the supernatant. The combined supernatants were reduced (2 uL 500 mM DTT, 30 minutes, RT), alkylated (4 uL 500 mM IAA, 45 minutes, dark) and a longer overnight digestion performed: 2 ug (4 uL) trypsin, shake o/n, The samples were then quenched with 20 uL 10% FA and desalted on 10 mg SepPak columns.
Desalted peptides were labelled with iTRAQ reagents according to the manufacturer's instructions (AB Sciex, Foster City, Calif.). Peptides were dissolved in 30 μl of 0.5 M TEAB pH 8.5 solution and labeling reagent was added in 70 ul of ethanol. After 1 h incubation the reaction was stopped with 50 mM Tris/HCl pH 7.5. Differentially labelled peptides were mixed and subsequently desalted on 10 mg SepPak columns.
Reconstituted peptides were separated on an online nanoflow EASY-nLC 1000 UHPLC system (Thermo Fisher Scientific) and analyzed on a benchtop Orbitrap Q Exactive Plus mass spectrometer (Thermo Fisher Scientific). The peptide samples were injected onto a capillary column (Picofrit with 10 μm tip opening/75 μm diameter, New Objective, PF360-75-10-N-5) packed in-house with 20 cm C18 silica material (1.9 μm ReproSil-Pur C18-AQ medium, Dr. Maisch GmbH, r119.aq). The UHPLC setup was connected with a custom-fit microadapting tee (360 μm, IDEX Health & Science, UH-753), and capillary columns were heated to 50° C. in column heater sleeves (Phoenix-ST) to reduce backpressure during UHPLC separation. Injected peptides were separated at a flow rate of 200 nL/min with a linear 80 min gradient from 100% solvent A (3% acetonitrile, 0.1% formic acid) to 30% solvent B (90% acetonitrile, 0.1% formic acid), followed by a linear 6 min gradient from 30% solvent B to 90% solvent B. Each sample was run for 120 min, including sample loading and column equilibration times. The Q Exactive instrument was operated in the data-dependent mode acquiring HCD MS/MS scans (R=17,500) after each MS1 scan (R=70,000) on the 12 top most abundant ions using an MS1 ion target of 3×10^6 ions and an MS2 target of 5×10^4 ions. The maximum ion time utilized for the MS/MS scans was 120 ms; the HCD-normalized collision energy was set to 27; the dynamic exclusion time was set to 20 s, and the peptide match and isotope exclusion functions were enabled.
All mass spectra were processed using the Spectrum Mill software package v6.0 pre-release (Agilent Technologies) which includes modules developed by us for iTRAQ-based quantification. […]

| Molecule | BA log fold change |
| --- | --- |
| FAF2 (protein) AAPEERDLTQEQTEKLLQFQDLTGIESMDQCRHTLEQHNWNIEAAVQDRLNEQEGVPSVFNPPPSRPLQVNTADHRIYSYVVSRPQPRGLLGWGYYLIMLPFRFTYYTILDIFRFALRFIRPDPRSRVTDPVGDIVSFMHSFEEKYGRAHPVFYQGTYSQALNDAKRELRFLLVYLHGDDHQDSDEFCRNTLCAPEVISLINTRMLFWACSTNKPEGYRVSQALRENTYPFLAMIMLKDRRMTVVGRLEGLIQPDDLINQLTFIMDANQTYLVSERLEREERNQTQVLRQQQDEAYLASLRADQEKERKKREERERKRRKEEEVQQQKLAEERRRQNLQEEKERKLECLPPEPSPDDPESVKIIFKLPNDSRVERRFHFSQSLTVIHDFLFSLKESPEKFQIEANFPRRVLPCIPSEEWPNPPTLQEAGLSHTEVLFVQDLTDE | 1.23 |
| TIMM23B (protein) MEGGGGSGDKTTGVLAGFFGAGEAGYSHADLAGVPLTGMNPLCPYLNVDPRYLVQDTDEFILPTGANKTWGRFELAFFTIGGCCMTGAAFGAMNGLRLGLKETQNMAWSKPGNVQILNMVTRQGALWANTLGSLALLYSAFGVIIEKTRGAEDDLNTVAAGTMTGMLYKCTVSEMALDSPFCVLLSGS | 1.22 |
| UBAC2 (protein) HCQKLFVYDLHAVKNDFQIWRLICGRIICLDLKDTFCSSLLIYNFRIFERRYGSRKFASFLLGSWVLSALFDFLLIEAMQYFFGITAASNLPSGFLAPVFALFVPFYCSIPRVQVAQILGPLSITNKTLIYILGLQLFTSGSYIWIVAISGLMSGLCYDSKMFQVHQVLCIPSWMAKFFSWTLEPIFSSSEPTSEARIGMGATLDIQRQQRMELLDRQLMFSQFAQGRRQRQQQGGMINWNRLFPPLRQRQNVNYQGGRQSEPAAPPLEVSEEQVARLMEMGFSRGDALEALRASNNDLNVATNFLLQH | 1.21 |
| SLC25A22 (protein) MADKQISLPAKLINGGIAGLIGVTCVFPIDLAKTRLQNQQNGQRVYTSMSDCLIKTVRSEGYFGMYRGAAVNLTLVTPEKAIKLAANDFFRHQLSKDGQKLTLLKEMLAGCGAGTCQVIVTTPMEMLKIQLQDAGRIAAQRKILAAQGQLSAQGGAQPSVEAPAAPRPTATQLTRDLLRSRGIAGLYKGLGATLLRDVPFSVVYFPLFANLNQLGRPASEEKSPFYVSFLAGCVAGSAAAVAVNPCDVVKTRLQSLQRGVNEDTYSGILDCARKILRHEGPSAFLKGAYCRALVIAPLFGIAQVVYFLGIAESLLGLLQDPQA | 1.20 |
| PPP6R3 (protein) MFWKFDLHSSSHIDTLLEREDVTLKELMDEEDVLQECKAQNRKLIEFLLKAECLEDLVSFIIEEPPQDMDEKIRYKYPNISCELLTSDVSQMNDRLGEDESLLMKLYSFLLNDSPLNPLLASFFSKVLSILISRKPEQIVDFLKKKHDFVDLIIKHIGTSAIMDLLLRLLTCIEPPQPRQDVLNWLNEEKIIQRLVEIVHPSQEEDRHSNASQSLCEIVRLSRDQMLQIQNSTEPDPLLATLEKQEIIEQLLSNIFHKEKNESAIVSAIQILLTLLETRRPTFEGHIEICPPGMSHSACSVNKSVLEAIRGRLGSFHELLLEPPKKSVMKTTWGVLDPPVGNTRLNVIRLISSLLQTNTSSINGDLMELNSIGVILNMFFKYTWNNFLHTQVEICIALILASPFENTENATITDQDSTGDNLLLKHLFQKCQLIERILEAWEMNEKKQAEGGRRHGYMGHLTRIANCIVHSTDKGPNSALVQQLIKDLPDEVRERWETFCTSSLGETNKRNTVDLVTTCHIHSSSDDEIDFKETGFSQDSSLQQAFSDYQMQQMTSNFIDQFGFNDEKFADQDDIGNVSFDRVSDINFTLNTNESGNIALFEACCKERIQQFDDGGSDEEDIWEEKHIAFTPESQRRSSSGSTDSEESTDSEEEDGAKQDLFEPSSANTEDKMEVDLSEPPNWSANFDVPMETTHGAPLDSVGSDVWSTEEPMPTKETGWASFSEFTSSLSTKDSLRSNSPVEMETSTEPMDPLTPSAAALAVQPEAAGSVAMEASSDGEEDAESTDKVTETVMNGGMKETLSLTVDAKTETAVFKRVLKSYREEGKLSTSQDAACKDAEECPETAEAKCAAPRPPSSSPEQRTGQPSAPGDTSVNGPV | 1.18 |
| PSMD12 (protein) ADGGSERADGRIVKMEVDYSATVDQRLPECAKLAKEGRLQEVIETLLSLEKQTRTASDMVSTSRILVAVVKMCYEAKEWDLLNENIMLLSKRRSQLKQAVAKMVQQCCTYVEEITDLPIKLRLIDTLRMVTEGKIYVEIERARLTKTLATIKEQNGDVKEAASILQELQVETYGSMEKKERVEFILEQMRLCLAVKDYIRTQIISKKINTKFFQEENTEKLKLKYYNLMIQLDQHEGSYLSICKHYRAIYDTPCIQAESEKWQQALKSVVLYVILAPFDNEQSDLVHRISGDKKLEEIPKYKDLLKLFTTMELMRWSTLVEDYGMELRKGSLESPATDVFGSTEEGEKRWKDLKNRVVEHNIRIMAKYYTRITMKRMAQLLDLSVDESEAFLSNLVVNKTIFAKVDRLAGIINFQRPKDPNNLLNDWSQKLNSLMSLVNKTTHLIAKEEMIHNLQ | 1.18 |
| LPCAT1 (protein) MRLRGCGPRAAPASSAGASDARLLAPPGRNPFVHELRLSALQKAQVALMTLTLFPVRLLVAAAMMLLAWPLALVASLGSAEKEPEQPPALWRKVVDFLLKAIMRTMWFAGGFHRVAVKGRQALPTEAAILTLAPHSSYFDAIPVTMTMSSIVMKAESRDIPIWGTLIQYIRPVFVSRSDQDSRRKTVEEIKRRAQSNGKWPQIMIFPEGTCTNRTCLITFKPGAFIPGAPVQPVVLRYPNKLDTITWTWQGPGALEILWLTLCQFHNQVEIEFLPVYSPSEEEKRNPALYASNVRRVMAEALGVSVTDYTFEDCQLALAEGQLRLPADTCLLEFARLVRGLGLKPEKLEKDLDRYSERARMKGGEKIGIAEFAASLEVPVSDLLEDMFSLFDESGSGEVDLRECVVALSVVCRPARTLDTIQLAFKMYGAQEDGSVGEGDLSCILKTALGVAELTVTDLFRAIDQEEKGKITFADFHRFAEMYPAFAEEYLYPDQTHFESCAETSPAPIPNGFCADFSPENSDAGRKPVRKKLD | 1.16 |
| AGPAT6 (protein) VSFGIRKLYMKSLLKIFAWATLRMERGAKEKNHQLYKPYTNGIIAKDPTSLEEEIKEIRRSGSSKALDNTPEFELSDIFYFCRKGMETIMDDEVTKRFSAEELESWNLLSRTNYNFQYISLRLTVLWGLGVLIRYCFLLPLRIALAFTGISLLVVGTTVVGYLPNGRFKEFMSKHVHLMCYRICVRALTAIITYHDRENRPRNGGICVANHTSPIDVIILASDGYYAMVGQVHGGLMGVIQRAMVKACPHVWFERSEVKDRHLVAKRLTEHVQDKSKLPILIFPEGTCINNTSVMMFKKGSFEIGATVYPVAIKYDPQFGDAFWNSSKYGMVTYLLRMMTSWAIVCSVWYLPPMTREADEDAVQFANRVKSAIARQGGLVDLLWDGGLKREKVKDTFKEEQQKLYSKMIVGNHKDRSRS | 1.16 |
